Measurements: patent US20220177594A1 (ZOETIS SERVICES, published 2022)
Residue numbers refer to the chain shown, from its start.

T1: feline OSMR on feline Fcwf-4 cells (feline, UniProt A0ABI8A843 28-960)
T1 sequence: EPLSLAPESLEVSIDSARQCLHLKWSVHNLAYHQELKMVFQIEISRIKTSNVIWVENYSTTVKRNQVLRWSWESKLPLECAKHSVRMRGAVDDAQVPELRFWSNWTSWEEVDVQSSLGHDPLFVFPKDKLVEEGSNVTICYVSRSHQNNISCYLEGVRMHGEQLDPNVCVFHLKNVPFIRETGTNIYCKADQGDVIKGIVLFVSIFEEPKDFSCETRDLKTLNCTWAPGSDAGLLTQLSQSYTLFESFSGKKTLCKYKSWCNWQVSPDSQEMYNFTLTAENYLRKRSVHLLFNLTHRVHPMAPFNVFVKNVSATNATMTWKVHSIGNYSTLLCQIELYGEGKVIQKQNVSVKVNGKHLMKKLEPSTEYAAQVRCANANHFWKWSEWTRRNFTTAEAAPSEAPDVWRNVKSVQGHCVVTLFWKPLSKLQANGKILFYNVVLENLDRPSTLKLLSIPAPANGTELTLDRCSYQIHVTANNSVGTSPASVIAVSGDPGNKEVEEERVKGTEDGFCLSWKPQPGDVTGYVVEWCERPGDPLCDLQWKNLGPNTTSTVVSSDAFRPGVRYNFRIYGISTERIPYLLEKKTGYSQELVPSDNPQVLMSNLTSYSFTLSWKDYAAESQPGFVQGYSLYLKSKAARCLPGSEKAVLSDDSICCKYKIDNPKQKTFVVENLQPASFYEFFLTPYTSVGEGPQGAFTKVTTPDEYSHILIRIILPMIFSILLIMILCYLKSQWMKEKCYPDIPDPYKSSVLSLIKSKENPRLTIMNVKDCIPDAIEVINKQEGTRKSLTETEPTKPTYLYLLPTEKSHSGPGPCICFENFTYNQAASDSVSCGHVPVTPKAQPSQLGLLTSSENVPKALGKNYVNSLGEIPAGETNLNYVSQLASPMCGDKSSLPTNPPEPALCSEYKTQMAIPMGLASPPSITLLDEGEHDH

T2: canine OSMR on canine cells (canine, UniProt A0A8I3MI11 28-967)
T2 sequence: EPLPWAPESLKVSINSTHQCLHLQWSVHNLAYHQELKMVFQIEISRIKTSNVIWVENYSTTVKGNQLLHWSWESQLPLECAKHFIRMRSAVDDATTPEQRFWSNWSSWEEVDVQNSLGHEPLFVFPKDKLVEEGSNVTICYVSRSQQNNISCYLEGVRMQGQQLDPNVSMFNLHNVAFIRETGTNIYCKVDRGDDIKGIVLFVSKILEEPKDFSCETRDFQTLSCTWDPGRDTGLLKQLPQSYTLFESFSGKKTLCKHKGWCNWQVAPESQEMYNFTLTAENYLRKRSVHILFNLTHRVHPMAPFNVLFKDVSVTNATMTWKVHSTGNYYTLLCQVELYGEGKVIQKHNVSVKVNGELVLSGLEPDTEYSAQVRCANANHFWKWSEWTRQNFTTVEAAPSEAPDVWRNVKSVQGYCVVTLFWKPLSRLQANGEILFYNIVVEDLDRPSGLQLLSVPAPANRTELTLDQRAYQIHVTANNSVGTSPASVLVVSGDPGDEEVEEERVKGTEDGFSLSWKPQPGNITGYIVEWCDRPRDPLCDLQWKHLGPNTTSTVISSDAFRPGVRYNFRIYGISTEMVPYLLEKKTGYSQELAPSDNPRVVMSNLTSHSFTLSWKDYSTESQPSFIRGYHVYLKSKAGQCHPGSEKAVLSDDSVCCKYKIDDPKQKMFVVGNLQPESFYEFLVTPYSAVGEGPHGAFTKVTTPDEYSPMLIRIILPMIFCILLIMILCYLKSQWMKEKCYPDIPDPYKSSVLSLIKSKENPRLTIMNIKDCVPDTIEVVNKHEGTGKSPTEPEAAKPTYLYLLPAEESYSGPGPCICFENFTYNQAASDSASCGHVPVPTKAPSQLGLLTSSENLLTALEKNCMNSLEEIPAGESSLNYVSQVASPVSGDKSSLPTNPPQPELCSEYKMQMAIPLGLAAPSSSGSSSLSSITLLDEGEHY

T3: Human_OSMR (human, UniProt Q99650 28-739)
T3 construct: Bought protein; also called hOSMR
T3 sequence: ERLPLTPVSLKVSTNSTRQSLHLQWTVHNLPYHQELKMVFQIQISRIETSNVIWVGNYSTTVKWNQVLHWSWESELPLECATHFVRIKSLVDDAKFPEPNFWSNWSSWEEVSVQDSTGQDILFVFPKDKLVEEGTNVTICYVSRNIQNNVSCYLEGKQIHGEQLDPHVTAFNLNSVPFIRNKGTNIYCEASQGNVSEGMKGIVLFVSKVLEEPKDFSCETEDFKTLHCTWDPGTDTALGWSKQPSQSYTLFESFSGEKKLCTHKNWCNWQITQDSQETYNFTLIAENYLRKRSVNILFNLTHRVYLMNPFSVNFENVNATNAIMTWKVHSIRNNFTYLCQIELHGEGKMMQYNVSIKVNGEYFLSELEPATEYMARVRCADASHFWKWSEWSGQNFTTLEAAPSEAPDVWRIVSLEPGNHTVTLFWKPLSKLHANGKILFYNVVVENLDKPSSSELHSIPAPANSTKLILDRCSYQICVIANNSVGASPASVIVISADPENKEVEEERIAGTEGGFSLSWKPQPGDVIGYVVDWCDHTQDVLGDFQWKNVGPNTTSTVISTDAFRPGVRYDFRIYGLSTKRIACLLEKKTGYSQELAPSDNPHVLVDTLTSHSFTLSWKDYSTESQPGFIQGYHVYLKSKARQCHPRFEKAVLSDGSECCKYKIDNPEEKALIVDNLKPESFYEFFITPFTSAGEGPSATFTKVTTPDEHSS

B1: Mu_02D09 (antibody, V domains shown)
VH: EVQLVESGGGLVKPGGSLTLSCAASGFTFSDYGMHWLRQAPEKGLEWVAYISSGSRAVFFADTVKGRFTISRDNAKNTLFLQMTSLRSDDTAMYYCARDRYDGRGFAYWGQGTLVTVSA
VL: DIVLTQSPATLSVTPGDSVSLSCRASQSISNNLHWYQQTSHESPRLLITYASQSISGIPSRFSGSGSGTDFTLSINSVETEDFGMYFCQQSNSWPLTFGAGTKLELK
notes: Mouse hybridoma IgG; also called mouse anti-OSMR 02D09
B2: Mu_09E09 (antibody, V domains shown)
VH: DVKLVESGEGLVKPGGSLKLSCAASGFTFSSYAMSWVRQTPEKRLEWVAYISSGGDYIYYADTVKGRFTISRDNARNTLYLQMSSLKSEDTAMYYCTRDPITGTFAYWGQGTLVTVSA
VL: DLQMTQTTSSLSASLGDRVTISCRASQDINNYLNWYQQKPDGTVKLLIYYTSTLHSGVPSRFSGSGSGTDYSLTISNLEQEDIATYFCQQGNTLPWTFGGGTKLEIK
notes: Mouse hybridoma IgG
B3: Mu_10F07 (antibody, V domains shown)
VH: B2 VH with A49T, I58F
VL: B2 VL with L2I, N30T, Y71F, N92H, T93M
notes: Mouse hybridoma IgG
B4: Mu_14C04 (antibody, V domains shown)
VH: EVQLQESGAELVKPGASVKISCKASGYAFSNYWMNWMKQRPGKGLEWIGQIYPGHVNTNYNGNFKDKATLTADKSSSTAYMQLSSLTSEDSAVYFCARSADNSGFVLFAYWGQGTLVTVS
VL: DIVLTQSPASLAVSLGQRATISCRASKSVSTSGYSYLHWYQQKPGQPPKLLIFLASNLESGVPARFSGSGSGTDFTLNIHPVEEEDAATYYCQHSRELPLTFGAGTKLELK
notes: Mouse hybridoma IgG
B5: Mu_19F07 (antibody, V domains shown)
VH: EVKLVESEGGLVQPGSSMKLSCTASGFTFSDYYMAWVRQVPEKGLEWVANINYDGSSTYYLDSLKSRFIISRDNAKNILYLQMSSLKSEDTATYYCARGLTWDFDVWGTGTTVTVSS
VL: DIVMTQSHKFMSPSVGDRVSITCKASQDVDTAVAWYQQKPGQSPKLLIYLASTRHTGVPDRFTGSGSGTDFTLTISNVQSEDLADYFCQQYSRFPLTFGAGTKLELK
notes: Mouse hybridoma IgG

What follows are binders tested against T1, feline OSMR on feline Fcwf-4 cells (assay: cell-based or functional assay).

Binder	% inh of feline IL-31 pSTAT3 signaling, feline Fcwf-4 cells	IC50, inhibition of canine OSM pSTAT3 signaling, feline Fcwf-4 cells	IC50, inhibition of feline IL-31 pSTAT3 signaling, feline Fcwf-4 cells
B1	67 % inh @ 75 µg/ml		
B2	63 % inh @ 75 µg/ml		
B3	91 % inh @ 75 µg/ml	0.23 µg/ml	
B4	0 % inh @ 75 µg/ml		
B5		0.68 µg/ml	0.42 µg/ml

These binders were tested against T2, canine OSMR on canine cells (assay: cell-based or functional assay).

Binder	% inh of canine IL-31 pSTAT3 signaling, canine DH82 cells	IC50, inhibition of canine OSM pSTAT3 signaling, canine DH82 cells	IC50, inhibition of canine IL-31 pSTAT3 signaling, canine DH82 cells
B1	0 % inh @ 75 µg/ml	> 50 µg/ml	
B2	80 % inh @ 75 µg/ml		
B3	93 % inh @ 75 µg/ml	0.05 µg/ml	
B4		8.64 µg/ml	5.65 µg/ml
B5		0.27 µg/ml	0.07 µg/ml

Target: T1, feline OSMR on feline Fcwf-4 cells
Test: cell-based or functional assay
Remark: another data set of the same source

Binder	% inh of feline IL-31 pSTAT3 signaling, feline Fcwf-4 cells
B1	67 % inh
B2	63 % inh
B3	91 % inh
B4	0 % inh
B5	90 % inh

Target: T2, canine OSMR on canine cells
Test: cell-based or functional assay
Remark: another data set of the same source

Binder	% inh of canine IL-31 pSTAT3 signaling, canine DH82 cells	IC50, inhibition of canine OSM pSTAT3 signaling, canine DH82 cells
B1	0 % inh	> 50 µg/ml
B2	80 % inh	
B3	93 % inh	0.04 µg/ml
B4	72 % inh	0.73 µg/ml
B5	87 % inh	0.27 µg/ml

What follows are binders tested against T3, Human_OSMR (assay: SPR Biacore, OSMR on chip).

Binder	binding result
B1	no binding
B2	no binding
B3	no binding
B4	no binding
B5	no binding
